Publication PMC8024055 (Nature, 2020)

Columns and labels:
SEC = target: the molecule itself; test: SEC
[1] = target: T1, His-MBP-FBXL17^310-701/Skp1 complex ( | human, UniProt Q9UF56;P63208); test: FRET or BRET
FRET or BRET = target: the molecule itself; test: FRET or BRET
[2] = target: FBXL17^310-701 (tags removed, in the structures) (UniProt Q9UF56 310-701); test: crystal structure
[3] = target: T1, His-MBP-FBXL17^310-701/Skp1 complex; test: pull-down

T1 sequence (Q9UF56 310-701, chain 1 of 2): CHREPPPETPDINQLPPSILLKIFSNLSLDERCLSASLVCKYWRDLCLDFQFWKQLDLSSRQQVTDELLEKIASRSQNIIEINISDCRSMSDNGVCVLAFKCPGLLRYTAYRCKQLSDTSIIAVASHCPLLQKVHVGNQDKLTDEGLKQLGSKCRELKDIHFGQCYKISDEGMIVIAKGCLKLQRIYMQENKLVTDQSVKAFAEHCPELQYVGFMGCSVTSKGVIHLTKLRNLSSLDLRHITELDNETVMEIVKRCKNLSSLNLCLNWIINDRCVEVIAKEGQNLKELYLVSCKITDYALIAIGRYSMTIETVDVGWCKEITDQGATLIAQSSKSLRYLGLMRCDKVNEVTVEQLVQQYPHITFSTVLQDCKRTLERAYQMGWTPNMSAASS
T1 sequence (P63208 whole entry, chain 2 of 2): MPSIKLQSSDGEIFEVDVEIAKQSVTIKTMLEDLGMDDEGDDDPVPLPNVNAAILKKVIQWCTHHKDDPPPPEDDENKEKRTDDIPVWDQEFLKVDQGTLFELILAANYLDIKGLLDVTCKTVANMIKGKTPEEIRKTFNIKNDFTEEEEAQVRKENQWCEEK
FBXL17^310-701 (tags removed, in the structures), sequence (Q9UF56 310-701): as the sequence (Q9UF56 310-701, chain 1 of 2) above

Row | Binder | stoichiometry N (SEC) | binding result [1] | binding result (FRET or BRET) | binding result [2] | binding result [3]
1 | KEAP1^48-180 S172A (recombinant BTB domain, called wild type) (domain or fragment) GNRTFSYTLEDHTKQAFGIMNELRLSQQLCDVTLQVKYQDAPAAQFMAHKVVLASSSPVFKAMFTNGLREQGMEVVSIEGIHPKVMERLIEFAYTASISMGEKCVLHVMNGAVMYQIDSVVRACADFLVQQLD | 2 | – | – | – | –
2 | KEAP1^48-180 S172A/F64A/R116C labeled with Alexa Fluor 555 or Alexa Fluor 647 (domain or fragment) GNRTFSYTLEDHTKQAAGIMNELRLSQQLCDVTLQVKYQDAPAAQFMAHKVVLASSSPVFKAMFTNGLCEQGMEVVSIEGIHPKVMERLIEFAYTASISMGEKCVLHVMNGAVMYQIDSVVRACADFLVQQLD | – | binds | binds | – | –
3 | KEAP1^48-180 S172A/V98A (recombinant BTB domain) (domain or fragment) GNRTFSYTLEDHTKQAFGIMNELRLSQQLCDVTLQVKYQDAPAAQFMAHKAVLASSSPVFKAMFTNGLREQGMEVVSIEGIHPKVMERLIEFAYTASISMGEKCVLHVMNGAVMYQIDSVVRACADFLVQQLD | 2 | – | – | – | –
4 | KEAP1^48-180 S172A/F64A (recombinant BTB domain) (domain or fragment) GNRTFSYTLEDHTKQAAGIMNELRLSQQLCDVTLQVKYQDAPAAQFMAHKVVLASSSPVFKAMFTNGLREQGMEVVSIEGIHPKVMERLIEFAYTASISMGEKCVLHVMNGAVMYQIDSVVRACADFLVQQLD | 2 | – | – | binds | binds
